Test results taken from US9475855B2, “Human Notch3 based fusion proteins as decoy inhibitors of Notch3 signaling” (THE TRUSTEES OF COLUMBIA UNIVERSITY IN THE CITY OF NEW YORK, priority 2008, dated 2016).

What was measured:
MT1-MMP = test: RT-PCR analysis of MT1-MMP expression in HUVEC; format: cell-based, human
Experimental: FIGS. 24A-B show gelatin zymography analysis of MMP-9 and MMP-2 activity stimulated by VEGF in HUVEC. […] Transduced HUVEC were cultured on fibrin gel on the indicated day (i.e. D2, D4, D6, D8). Similar results were also obtained by using collagen gel, although induction of MMP-9 was stronger on fibrin gel than collagen gel (data not shown). […] HUVEC were transduced with Ad-N1ECDFc at the indicated doses and condition medium was collected from HUVEC cultured on collagen gel at day 4. FIGS. 24C-D show up-regulation of MMP-9 and MT1-MMP with Notch signaling. HUVEC were transduced with either Ad-LacZ or Ad-N1IC at 40 MOI. Numbers show PCR cycles. […] HUVEC were transduced with Ad-VEGF in the absence or presence of co-transduction of Ad-N1ECDFc at 40 MOI each. Ad-LacZ was co-transduced to make the same total amount of adenovirus at 80 MOI.
Requisition of MMPs for angiogenic sprouting has been established by synthetic MMP inhibitors (16). GM6001 is one broad inhibitor against MMPs including MMP2, MMP9 and MT1-MMP (18).

[1] = test system: VEGF-induced angiogenesis; test: mouse Dorsa Air Sac (DAS) assay; format: in vivo
Text: These Figures show the role of Notch signaling in VEGF-dependent in vivo angiogenesis. FIGS. 25A-25D show inhibition of VEGF-induced angiogenesis with N1ECDFc in mouse DAS assay. Representative photographs are shown. FIG. 25A show subcutaneous induced angiogenesis with 293/VEGF transfectant versus 293/VEGF also expressing Notch decoy (Notch-based fusion protein) N1ECDFc. […] MDA-MB-231 breast cancer cells produce VEGF (data not shown).

Ad-VEGF-infected HUVEC = test: VEGF-induced HUVEC budding (sprouting) on collagen gel; format: cell-based, human; details: for budding / morphology of HUVEC with Notch fusion protein alone: no Ad-VEGF
Experimental: For making collagen gels, an ice-cold solution of porcine type I collagen (Nitta gelatin, Tokyo, Japan) was mixed with 10xRPMI1640 medium and neutralization buffer at the ratio of 8:1:1. 400 μl aliquots of collagen gel were then added to 24-well plates and allowed to gel for at least 1 hour at 37° C. Following adenoviral infection (above), HUVEC was harvested and plated at 1.3×10^5 cells per well onto the top of the collagen gel in 24-well plates in 0.8 ml of EGM2 medium. HUVEC became nearly confluent 48 hours after plating. After seeding, medium was changed every 2 days for 1 week. Sprouting was observed and photographs taken after 8 days with an Olympus digital camera mounted to a microscope. For quantification of the number of sprouts, 5 fields per each well were randomly selected and sprouting was counted under microscopy in a blind manner by two investigators.
In this experiment, we evaluated the effect of Notch decoy on induction of budding (initiation of sprouting) by over-expressed VEGF-165 in HUVEC. When Ad-VEGF-infected HUVEC were cultured on type collagen gel for 8 days, budding was induced into collagen gel.

[2] = in vivo assays to model VEGF-induced skin neovascularization

B1: N1ECDFc: Notch-based fusion protein or decoy: Notch1 extracellular domain EGF repeats fused to Fc; expressed from plasmid or adenovirus (Ad-N1ECDFc) (protein)
chain: ARGLRCSQPSGTCLNGGRCEVANGTEACVCSGAFVGQRCQDPSPCLSTPCKNAGTCYVVDHGGIVDYACSCPLGFSGPLCLTPLANACLANPCRNGGTCDLLTLTEYKCRCPPGWSGKSCQQADPCASNPCANGGQCLPFESSYICGCPPGFHGPTCRQDVNECSQNPGLCRHGGTCHNEIGSYRCACRATHTGPHCELPYVPCSPSPCQNGGTCRPTGDTTHECACLPGFAGQNCEENVDDCPGNNCKNGGACVDGVNTYNCRCPPEWTGQYCTEDVDECQLMPNACQNAGTCHNSHGGYNCVCVNGWTGEDCSDNIDDCASAACFQGATCHDRVASFYCECPHGRTGLLCHLNDACISNPCNEGSNCDTNPVNGKAICTCPRGYTGPACSQDVDECALGANPCEHAGKCLNTLGSFECQCLQGYTGPRCEIDVNECISNPCQNDATCLDQIGEFQCICMPGYEGVYCEINTDECASSPCLHNGRCVDKINEFLCQCPKGFSGHLCQYDVDECASTPCKNGAKCLDGPNTYTCVCTEGYTGTHCEVDIDECDPDPCHIGLCKDGVATFTCLCQPGYTGHHCETNINECHSQPCRHGGTCQDRDNYYLCLCLKGTTGPNCEINLDDCASNPCDSGTCLDKIDGYECACEPGYTGSMCNVNIDECAGSPCHNGGTCEDGIAGFTCRCPEGYHDPTCLSEVNECNSNPCIHGACRDGLNGYKCDCAPGWSGTNCDINNNECESNPCVNGGTCKDMTSGYVCTCREGFSGPNCQTNINECASNPCLNQGTCIDDVAGYKCNCPLPYTGATCEVVLAPCATSPCKNSGVCKESEDYESFSCVCPTGWQGQTCEIDINECVKSPCRHGASCQNTNGSYRCLCQAGYTGRNCESDIDDCRPNPCHNGGSCTDGVNAAFCDCLPGFQGAFCEEDINECATNPCQNGANCTDCVDSYTCTCPTGFNGIHCENNTPDCTESSCFNGGTCVDGINSFTCLCPPGFTGSYCQYDVNECDSRPCLHGGTCQDSYGTYKCTCPQGYTGLNCQNLVRWCDSAPCKNGGKCWQTNTQYHCECRSGWTGFNCDVLSVSCEVAAQKRGIDVTLLCQHGGLCVDEEDKHYCHCQAGYTGSYCEDEVDECSPNPCQNGATCTDYLGGFSCKCVAGYHGSNCSEEINECLSQPCQNGGTCIDLTNTYKCSCPRGTQGVHCEINVDDCHPPLDPASRSPKCFNNGTCVDQVGGYTCTCPPGFVGERCEGDVNECLSNPCDPRGTQNCVQRVNDFHCECRAGHTGRRCESVINGCRGKPCRNGGVCAVASNTARGFICRCPARFEGATCENDARTCGSLRCLNGGTCISGPRSPTCLCLGSFTGPECQFPASSPCVGSNPCYNQGTCEPTSESPFYRCLCPAKFNGLLCHILDYSFTDLGPG
modifications: left off: a dimerising Fc or GST
expression of MT1-MMP (MT1-MMP; Ad-N1ECDFc infection alone, Ad-LacZ infected HUVEC (data not shown)): did not affect
VEGF-induced up-regulation of MT1-MMP mRNA (MT1-MMP; Ad-VEGF-HUVEC, co-transduction at 40 MOI each): inhibited
in vivo angiogenesis induced by MDA-MB-231 ([1]; adenovirus mediated expression of N1ECDFc, compared to adenovirus expressing LacZ): clearly inhibited
in vivo angiogenesis induced by 293/VEGF ([1]; coexpression of N1ECDFc, compared to 293/VEGF alone): clearly inhibited
VEGF-induced neo-vascularization [1, 2]: blocks
induction of VEGFR-1 expression [1, 2]: blocks
cell number in VEGF-induced budding assay (Ad-VEGF-infected HUVEC; FIG. 22I): without affecting cell number
budding of Ad-VEGF-HUVEC (Ad-VEGF-infected HUVEC; collagen gel): clearly inhibited
budding / morphology of HUVEC with Notch fusion protein alone (Ad-VEGF-infected HUVEC): Neither Ad-LacZ or Ad-N1ECDFc-transduced HUVEC formed buds
budding / morphology of HUVEC with Notch fusion protein alone (Ad-VEGF-infected HUVEC; listed as Notch fusion protein): less effect on morphology
